{"source": "the DeepSol protein solubility set"}
{"assay": "soluble on expression in E. coli; label from the status in PepcDB or PDB records"}
{"sequence": "MSEKQSNEQVEAFLNKESQWQEEYKYLRALIFNETELEEAYKWMHPCYTLNNKNVVLIHGFKNYVALLFHKGAILEDKYHTLIQQTEKVQAARQLRFENLTEIQARTEEIKYYLAEAIKAEKAGKKVEMKKTEEYVIPKELEAKFEEMPQLESSFYKLTPGRQHQYIYHIGQAKRSETKQKRVEKYINQILEGKGMHDK", "soluble on expression in E. coli": "not soluble"}
{"sequence": "MALKDLFSGFFVVEEEDDELEAPPEENEQQERQQPKQQAQSQNQFTEQPRNVNSERPRSIQSVPKKQSTRLQQSSGERKYQMNNTTSKNNARNVVNMNNQEQENYDFTQESSKMCLFEPRVFSDTQDIADELKNRRATLVNLQRIDKVSAKRIIDFLSGTVYAIGGDIQRVGSDIFLCTPDNVEVAGSITDQIENMEYQGELEHHHHHH", "soluble on expression in E. coli": "not soluble"}
{"sequence": "MNYEIKQEEKRTVAGFHLVGPWEQTVKKGFEQLMMWVDSKNIVPKEWVAVYYDNPDETPAEKLRCDTVVTVPGYFTLPENSEGVILTEITGGQYAVAVARVVGDDFAKPWYQFFNSLLQDSAYEMLPKPCFEVYLNNGAEDGYWDIEMYVAVQPKHH", "soluble on expression in E. coli": "soluble"}
{"sequence": "MPTFRSNIVVFNLIARRAFTTTSTKNMGFVEKVRLLDYWKIQDSALQSEFPRSRLVLMVDRRLLVTKDQPDVQMVELSFDDLKQRLGEYGLQFDLSNSCLLDALSTDVDMIPLFGTSIDAADPPEDSPISKKEVLKQLGNSLGGRFTDIRMAMLTMREERQRNLLAKFQSLTKWASIYRRCPKCAAALKMRSSKSGAECVTCQRVYYPTFSPVSITLITDPTNEHALLVRHRGSAGGVFTAVAGFAHSGESMAECARREIAEEVGIEVDSIRSLDMSQPWPMPDSSLMIAHVAVAKIDQKISVCPDELETAQWFTRHQVKEALTTTLADPLLKNLPRTLDDRQTLHYIPPAGAIAHQMIRQWVDGKLENHNSRI", "soluble on expression in E. coli": "not soluble"}
{"sequence": "MSLSKMAALITQEIGSFRKPEYLSMEFHKIEGTEKFKELAERATIDTLKIFENTGLDNVGIGGEMYRWEMYEHPAERIKGLIFYGMVRSFDNRYYRKGSVIDKIERRGSFHMDEVEFVAKSTKKPIKIPITGPYTMMDWSFNDHYNDRHELAMEFARIINEELKEIQSKWPYISNGRKLEIQIDEPATTTHPDEMDIVVDSVNKSIEGIDAELSLHVCYSRDYRLLYDRIPELNIDGYNLEYSNRDTTDLGVEDAKRPGFQDIKYFNEVNESLQRKKFIGVGVTDVHIDFIEPVKLIEDRIKYVLNIIKDPELVKLNPDCGLRTRSRSIGEQKLRNMVIAKNNVLKDISEGHHHHHH", "soluble on expression in E. coli": "not soluble"}
{"sequence": "MILSVHILDQQTGKPAPGVEVVLEQKKDNGWTQLNTGHTDQDGRIKALWPEKAAAPGDYRVIFKTGQYFESKKLDTFFPEIPVEFHISKTNEHYHVPLLLSQYGYSTYRGS", "soluble on expression in E. coli": "soluble"}
{"sequence": "MVNQLIEPYGGTLVNLIDPEKREALKHEALSLPSLDLDWQQQCELEMLMTGAYSPLTGFMTRAQCARVESAQQLDDGSFWPSPITLTSRDRALADRRPGERLALRDGEGYMLAILTLSDVWKDGERWHLAGEVEGAALPPHPDFVSLRATPAELRALFVRRGWRRIIAWQARQPMHRAQYEFCLKSAIENEANLLLHPQVGGDITEAPAYFGLVRSFLAIRDRFPAATTQLSLLPAPPPEASGRALLLRAIVARNFGCSLLIAGGEHQPDGGDCRRGEDLTQNRVDPSVAERAEKIGVRLIAYPRMVYVEDRAEHLPEAEAPQGARLLTLSGEEFQRRMRAGLKIPEWYSFPEVLAELHRQTPPRERQGFTVFFTGLSGAGKSTLARALAARLMEMGGRCVTLLDGDIVRRHLSSELGFSKAHRDVNVRRIGFVASEITKNRGIAICAPIAPYRQTRRDVRAMIEAVGGFVEIHVATPIETCESRDRKGLYAKARAGLIPEFTGVSDPYEVPETPELAIDTTGLAIDEAVQQILLKLEHEGYLRLEHHHHHH", "soluble on expression in E. coli": "soluble"}
{"sequence": "SPDHLFPPKPNTRVVVAKFPMGAVTVEDLLVLGKPFGTVVKHLVLPAKGFLEFSAHKEAVNMVNHFQQKPAFVKDTRVGLYLSPRVEGIHSPPKYDEPVPKRLKRTNNPSVVCFSHLPPGEDNQAEVLELAAMFGEVWQSKFLDGKALIEMVDWRDADIMVKYYYSNPLKIQGKSIKVTMSYIKSLREMPGELTPRKSDSSKHSRQKEESSVKDKADDTNQESSEKETKTIKTPEQSQEEGVQLEEGTDHYNNLKLKHAVEEQADGQPDGE", "soluble on expression in E. coli": "soluble"}
{"sequence": "MGSDKIHHHHHHMSKRLMPSTTALQCFEAAARHLSFTRAAQELHLTQSAVSKQVAQLEDMLSHSLFQRIRRRLHLTPAGALYLTEVNKILTQIDISSRYILSYGDETEVLRIATQPTFGARWLVPRLKGFGDRYPRIHLDVRNELEPFDLVQAKADVAFFFGQGTWPGATCIELFSEEVVPVCSPQLLASHRFDSAQALTEHRLLQCVSRPEAWHEWFLGLGLHSQNSYHGPRFDTFYLCIRAAISGCGIALIPRYLVAEELSEGKLVVAWDHPVASNGRHFIAHAEHAAEVPKIRAFVQWIRERVAEGD", "soluble on expression in E. coli": "not soluble"}
{"sequence": "ADRHYSPIDRFLLQADSALRTLLPFSGQPARPSPAIVEPDGELSEEDTRHIAGLMRINHTGEVCAQALYQGQSLTAKLPEVREAMEEAAEEEIDHLAWCEQRIRQLGSRPSVLNPIFYGLSFGVGAAAGLVSDRVSLGFVAATEDQVCKHLDEHLAQIPQEDRKSRAILEQMRIDEEQHSSNALAAGGLRFPAPVKLGMSLLAKV", "soluble on expression in E. coli": "not soluble"}
{"sequence": "SLILHAQAKHGKPGLPWLVFLHGFSGDCHEWQEVGEAFADYSRLYVDLPGHGGSAAISVDGFDDVTDLLRKTLVSYNILDFWLVGYSLGGRVAMMAACQGLAGLCGVIVEGGHPGLQNAEQRAERQRSDRQWVQRFLTEPLTAVFADWYQQPVFASLNDDQRRELVALRSNNNGATLAAMLEATSLAVQPDLRANLSARTFAFYYLCGERDSKFRALAAELAADCHVIPRAGHNAHRENPAGVIASLAQILRF", "soluble on expression in E. coli": "soluble"}
{"sequence": "MESADGEIEALCSIWDGVHVESKLEASRRYLKHKIKSLEDESTSASVLIEMTVSEGYPAVSPTVTLSNPRGIGEPEFRELQRQIQEIIEQNSDEMPIICQIFQHCSDFLTENQHQNMDCSICLICLASSPIIVTACDHFMHFACFNRYLTECLTGLRQEIQDAQKHMKEQVETNIFCPVCRAQLTDSNTIHNYRENVQLMIKNCKKNQKTLKNKKRRSSTTTEDVQKTIKRWHEEQRKLSKIYEKQKEKGGIIDIEEEKKRRQFFIETTTNEETDEAESTDIAENID", "soluble on expression in E. coli": "not soluble"}
{"sequence": "MGSDKIHHHHHHMKKRNITEFQVLSEIIRKQPHIKQKEIAENLGITVQAVSEHIRNLVKEGYVKSRGRGEYVVTEKGLRKLKNWISEFKDYLDEINTAVYRYKDIWPAIADEDVKDGETVYLFMKNGLLYASKQPKGEAKAKALYGGKKGEDIAICEIKGIIDVPKGKVIVFRIPPEVVGGSRAVDFNLIKENIDNLDDYVIATMGTVAYVVACKLGLKPDIRFAVPEAIVNACNRGCNVIALITGKMAEKVIKKLDNAKISYTVLDATKENK", "soluble on expression in E. coli": "not soluble"}
{"sequence": "MSLIRWCFTMKLAVIGGGDLQDSNHSPINERLIELTNKQYPKVLFIPTASHDDESYIKLFLDTFEKQLHCDVQILGIIADTPSKYEIDEMIQSADLIYLGGGNYIQMVTEWKEHKLDEKLLLALEQGTLIAGYSAGAMCWFTSSIRSDYEGSGYIESNGWGIVNKRFCPHYNQLNRMNAFHSFLQNHQGNIEGIALEDNCALYITEESFEIIGEPEKAWEFYMSDNKLIRQHFDITLKSYLEGHHHHHH", "soluble on expression in E. coli": "not soluble"}
{"sequence": "MAHHHHHHMELYQDNKINNVGNIEINQCDGVIKKENDLHVSVIKPITKKIIHCDNMENKMKINAFYKPVELVEEIKNYVHKGDTHLVKLYEDFKNKKDKKVKMKNEYMTKLKNLHILNMINNKKKENECGVVNKNNIVHFNLFNENEDVTPKIETVYIPKLEKNIEVVSHLKENVNVDYTYMVPKPVVIPIEVPILKFRDHFKIIPIRKKIIPVIKYTDNIIYVDCCVEKPYIVYENVIIPVPCDIPIEQKKYIDKVPPI", "soluble on expression in E. coli": "not soluble"}
{"sequence": "APEERDLTQEQTEKLLQFQDLTGIESMDQCRHTLEQHNWNIEAAVQDRLNEQEGVPSVFNPPPSRPLQVNTADHRIYSYVVSRPQPRGLLGWGYYLIMLPFRFTYYTILDIFRFALRFIRPDPRSRVTDPVGDIVSFMHSFEEKYGRAHPVFYQGTYSQALNDAKRELRFLLVYLHGDDHQDSDEFCRNTLCAPEVISLINTRMLFWACSTNKPEGYRVSQALRENTYPFLAMIMLKDRRMTVVGRLEGLIQPDDLINQLTFIMDANQTYLVSERLEREERNQTQVLRQQQDEAYLASLRADQEKERKKREERERKRRKEEEVQQQKLAEERRRQNLQEEKERKLECLPPEPSPDDPESVKIIFKLPNDSRVERRFHFSQSLTVIHDFLFSLKESPEKFQIEANFPRRVLPCIPSEEWPNPPTLQEAGLSHTEVLFVQDLTDE", "soluble on expression in E. coli": "soluble"}
{"sequence": "MNNSAEYFIKSLNMTAHPEGGYFKESFISPSKLAPNTLHINEERLLWTSIYFLLRTGEVSNFHRLKSDEMWYFHAGESLTIYMISPNGELIEKQLGLNIEKGETPQVLVPKDYIFGSAMNNEGFSLVGCMVAPGFDFKDFELFEREDLLEKYPKYKEVIEKLTRLEHHHHHH", "soluble on expression in E. coli": "not soluble"}
{"sequence": "MAHHHHHHMLRRLGAGTNGQVRRSASSVSYGYLNLTVSDKIMPYVEGLKKKVIYVSSSKDCKAYVQEIQKGVQAGKINCIGLDVEGYKIGRNGTVSIIQVCTQDVYLFDLYKCDNSYLFVKCLKELLEDRRVIKITHDCREDCSILFNQYSICLNRTFDTQVAFNLLLKETKKDLYQISYDDLLYKCLLLNNKHKIYFHKMISLDQKIYLKRPIAKELIQYAIQDVIYLKPLMWSLVDRLLRVCKDGEAGREPFGEDGEARSNPFGEDGEARSNPFGEENPRSIKNGDDVMSEGAHSNLSEHKTNIIKRVTRLSERYINYQFLNTHVKNEKELQKGMTLDGMVVSCNNLNLYVKLNLSRRGVITNCMRNDFEIGDVVKCVILGFCNNDYIKLGLCDPSLCAVKREEGR", "soluble on expression in E. coli": "not soluble"}
{"sequence": "MTEPKKEIIEDENHGISKKIPTDPRQYEKVTEGCRLLVMMASQEEERWAEVISRCRAANGSIKFYVHYIDCNRRLDEWVQSDRLNLASCELPKKGGKKGAHLREENRDSNENEGKKSGRKRKIPLLPMDDLKAESVDPLQAISTMTSGSTPSLRGSMSMVGHSEDAMTRIRNVECIELGRSRIQPWYFAPYPQQLTSLDCIYICEFCLKYLKSKTCLKRHMEKCAMCHPPGNQIYSHDKLSFFEIDGRKNKSYAQNLCLLAKLFLDHKTLYYDTDPFLFYVLTEEDEKGHHIVGYFSKEKESAEEYNVACILVLPPFQKKGYGSLLIEFSYELSKIEQKTGSPEKPLSDLGLLSYRSYWSMAIMKELFAFKRRHPGEDITVQDISQSTSIKREDVVSTLQQLDLYKYYKGSYIIVISDEKRQVYEKRIEAAKKKTRINPAALQWRPKEYGKKRAQIMF", "soluble on expression in E. coli": "not soluble"}
{"sequence": "MTTKNTLQPTEAAYIAGFLDGDGSIYAKLIPRPDYKDIKYQVSLAISFIQRKDKFPYLQDIYDQLGKRGNLRKDRGDGIADYTIIGSTHLSIILPDLVPYLRIKKKQANRILHIINLYPQAQKNPSKFLDLVKIVDDVQNLNKRADELKSTNYDRLLEEFLKAGKIESSP", "soluble on expression in E. coli": "soluble"}
{"sequence": "MIAKEKILKGFETAEARWARFGPYYAMFPLEFAFDVVEKYSKNGDYIIDPFAGRCSSIYAGGVLGRNSLGLEINPVGWLYGTVKLHPAEKEEVIDRLLEIYSKRNYYNRAIQKMPEFYRICYCDEVLKFLLAARTHLDWRNNKVDATLMSILLIYLHAKIGEGLSNQMRMTKSMGMNYSVQWWKKNNMTTPPEINPCDFILKKIEWRYEKGKPKVSESAVVFGDSSNKLISIAERAINNDIKFSLLFTSPPYYSITDYHADQWLRLWLLGGSENPQSLKDKHKGRFVNKQEYYDLLDNVFGLCAKMMKRESTVYVRTDKREFTFNSTLEILKRHFPNHSVKIVEKPLTKDTKTQTKLFGDKTMKPGEVDIIMSRK", "soluble on expression in E. coli": "not soluble"}
